Reference: patent publication US20040063184A1, “Fermentation processes and compositions” (priority 2002, published 2004)

Columns and labels:
Type in all cases: cell-based
[1] = system: yeast; experiment: Example 4: LSF ethanol fermentation with lipases, purified lipases, ferric sulfate; conditions: Candida antarctica lipase 400 LU/g DS, purified lipases 100 LU/g DS
Method: Example 4 was conducted on dry milled corn according to a simultaneous liquefaction5 saccharification-fermentation (LSF) protocol. The experiment was carried out on ground yellow corn using a glucoamylase and alpha amylase for fermenting ethanol with and without lipase, as described in examples 2 and 3. Fermentations were carried out at pH=5.0, 32° C. for several hours. In addition to Candida antarctica lipase and inactivated Candida antarctica lipase, feric sulfate and purified lipases from Candida cylindracea lipase and Candida antarctica lipase A, were also compared. Four times less of the purified lipase was used.

[2] = system: yeast; experiment: Example 14: LSF ethanol fermentation with and without laccase; conditions: additive with glucoamylase: 0.1 M NaCl & 0.7 GAU/g DS, NZ 525 0.5% DS & 0.9 GAU/g DS, laccase 0.2% DS & 1.0 GAU/g DS
Method: The addition of a laccase was tested under anaerobic fermentation conditions analogous to ethanol fermenting experiments. The experiment was conducted on dry milled yellow corn according to a simultaneous liquefaction-saccharification-fermentation (LSF) protocol. The experiment was carried out using a glucoamylase (Spirizyme plus, available from Novozymes A/S) for fermenting ethanol, with and without laccase. Fermentations were carried out at pH=5.0, 32° C. for several hour. The process was monitored with time and analyzed for CO2 weight loss, percent ethanol produced and theoretical conversion of the starch.

[3] = system: Ethanol Red yeast; experiment: Example 10: Lipolase 100 T versus purified Lipolase
Method: In this example, Lipolase 100 T and purified Lipolase (both available from Novozymes A/S) were compared. The Experimental conditions were as follows: Ethanol Red yeast, 36% DS, 1.5 GAU/g DS Spirizyme Fuel, 0.8 AFAU/g DS SP 288. Yeast was propagated with maltodextrin and protease. Fermentation was carried out in 25-ml fermentors at 32.2° C. without mixing for 72 h. A control was run as described, without the addition of lipase.

[4] = system: Ethanol Red yeast; experiment: Example 8: as Example 6 with protease in the fermentation medium
Method: This experiment was carried out using the same experimental conditions and enzyme concentrations described in Example 6, with the exception that protease (Novozyme 50006, 0.007% DS) was also added to the fermentation medium with an increased sample volume.
To eliminate the possibility that a substance in the CALB formulation was contributing to the effect obtained, inactivated CALB was also used. A control was prepared by inactivating CALB by boiling for 3 hours. Upon completion of boiling, the volume was adjusted to the initial value with DI water, and sample was spun down at 3,000 rpm for 20 min. The liquid layer was forced through the 0.45-μm filter. The enzyme was thereby completely inactivated.

[5] = system: yeast; experiment: Example 2: LSF ethanol fermentation of ground yellow corn with esterases; conditions: esterase 200 U/g DS
Method: Example 2 was conducted on dry milled ground yellow corn according to a simultaneous liquefaction-saccharification-fermentation (LSF) protocol. The experiment was carried out using a glucoamylase (Spirizyme Plus, available from Novozymes A/S) in an amount of 0.8 GAU/g DS and a fungal alpha amylase (SP288, available from Novozymes A/S) in an amount of 2.6 AFAU/g DS for fermenting ethanol along with the addition of:
(A) lipase (LIPOLASE, available from Novozymes A/S),
(B) Candida antarctica lipase,
(C) cutinase (JC 492, available from Novozymes A/S)
(D) phospholipase (LECITASE available from Novozymes A/S),
(E) inactivated Candida antarctica lipase (inactivated by boiling for three hours), and
(F) a control (glucoamylase and amylase without esterase addition).
The esterases were added in an amount corresponding to 200 U/g DS. Fermentations were carried out at pH=5.0, 32° C. for several hours. The process was monitored with time and ana20 lyzed for CO2 weight loss, percent ethanol produced and theoretical conversion of the starch.

O=S(=O)([O-])[O-].O=S(=O)([O-])[O-].O=S(=O)([O-])[O-].[Fe+3].[Fe+3] [Fe2(SO4)3]
Calculated ethanol, % v/v ([1]; 24 h): 11.58 ± 0.13 % v/v
Efficiency, % ([1]; 24 h): 52.79 ± 0.67%
Calculated ethanol, % v/v ([1]; 48 h): 16.87 ± 0.43 % v/v
Efficiency, % ([1]; 48 h): 81.84 ± 2.57%
Calculated ethanol, % v/v ([1]; 72 h): 18.82 ± 0.91 % v/v
Efficiency, % ([1]; 72 h): 91.00 ± 2.45%

[Cl-].[Na+] [NaCl]
HPLC ethanol, % v/v ([2]; 7 h): 1.88 % v/v
HPLC ethanol, % v/v ([2]; 23 h): 7.91 % v/v
HPLC ethanol, % v/v ([2]; 29 h): 8.78 % v/v
HPLC ethanol, % v/v ([2]; 47 h): 10.30 % v/v
HPLC ethanol, % v/v ([2]; 55 h): 10.94 % v/v
HPLC ethanol, % v/v ([2]; 119 h): 14.61 % v/v

B1: Lipolase (purified): purified Lipolase, available from Novozymes A/S (protein, UniProt O59952 23-291, looked up)
Lipase: EVSQDLFNQFNLFAQYSAAAYCGKNNDAPAGTNITCTGNACPEVEKADATFLYSFEDSGVGDVTGFLALDNTNKLIVLSFRGSRSIENWIGNLNFDLKEINDICSGCRGHDGFTSSWRSVADTLRQKVEDAVREHPDYRVVFTGHSLGGALATVAGADLRGNGYDIDVFSYGAPRVGNRAFAEFLTVQTGGTLYRITHTNDIVPRLPPREFGYSHSSPEYWIKSGTLVPVTRNDIVKIEGIDATGGNNQPNIPDIPAHLWYFGLIGTCL
Change, % v/v vs. control (efficiency) ([3]; 1 LU/g DS): +1.00 % v/v
Change, % v/v vs. control (ethanol) ([3]; 1 LU/g DS): +0.31 % v/v
Efficiency, % ([3]; 1 LU/g DS): 84.00%
Ethanol, % v/v in beer ([3]; 1 LU/g DS): 18.41 % v/v
Change, % v/v vs. control (efficiency) ([3]; 10 LU/g DS): +0.49 % v/v
Change, % v/v vs. control (ethanol) ([3]; 10 LU/g DS): +0.52 % v/v
Efficiency, % ([3]; 10 LU/g DS): 83.49%
Ethanol, % v/v in beer ([3]; 10 LU/g DS): 18.62 % v/v
Change, % v/v vs. control (efficiency) ([3]; 100 LU/g DS): +0.57 % v/v
Change, % v/v vs. control (ethanol) ([3]; 100 LU/g DS): +0.14 % v/v
Efficiency, % ([3]; 100 LU/g DS): 83.57%
Ethanol, % v/v in beer ([3]; 100 LU/g DS): 18.24 % v/v

B2: Candida antarctica lipase inactive: Candida antarctica lipase inactivated by boiling for three hours (protein, UniProt P41365 26-342, looked up)
Lipase B: LPSGSDPAFSQPKSVLDAGLTCQGASPSSVSKPILLVPGTGTTGPQSFDSNWIPLSTQLGYTPCWISPPPFMLNDTQVNTEYMVNAITALYAGSGNNKLPVLTWSQGGLVAQWGLTFFPSIRSKVDRLMAFAPDYKGTVLAGPLDALAVSAPSVWQQTTGSALTTALRNAGGLTQIVPTTNLYSATDEIVQPQVSNSPLDSSYLFNGKNVQAQAVCGPLFVIDHAGSLTSQFSYVVGRSALRSTTGQARSADYGITDCNPLPANDLTPEQKVAAAALLAPAAAAIVAGPKQNCEPDLMPYARPFAVGKRTCSGIVTP
modifications: heat-inactivated by boiling
effect on ethanol yield and efficiency [4]: no significant difference between ethanol yield of control samples and ethanol yield of samples treated with inactivated CALB
Calculated ethanol, % v/v ([5]; 24 h): 11.43 ± 0.08 % v/v
Efficiency, % ([5]; 24 h): 52.88 ± 0.40%
Calculated ethanol, % v/v ([5]; 48 h): 16.88 ± 0.15 % v/v
Efficiency, % ([5]; 48 h): 83.18 ± 0.89%
Efficiency, % ([5]; 72 h): 90.89 ± 0.25%
HPLC ethanol, % v/v ([5]; 72 h): 19.49 ± 0.04 % v/v
Calculated ethanol, % v/v ([1]; 24 h): 10.59 ± 0.16 % v/v
Efficiency, % ([1]; 24 h): 49.33 ± 0.85%
Calculated ethanol, % v/v ([1]; 48 h): 16.91 ± 0.30 % v/v
Efficiency, % ([1]; 48 h): 84.73 ± 1.77%
Calculated ethanol, % v/v ([1]; 72 h): 18.65 ± 0.40 % v/v
Efficiency, % ([1]; 72 h): 95.49 ± 2.53%
